Test results taken from patent publication US20040019193A1, “Mob-5/hmob-5 as a cancer diagnostic marker” (priority 2002, published 2004).

Columns and labels:
[1] = system: putative Mob-5 receptor on the cell surface of h-ras transformed RIE cells; test: AP fusion protein receptor binding assay on RIE cells before and after h-ras transformation; parameters: species or system rat; conditions: normal versus h-ras transformed RIE cells, media at 0.7 unit/ml
Procedure: (E) Mob-5-AP, but not hMob-5-AP, binds specifically to the cell surface of oncogenic h-ras transformed RIE cells. Both the normal and oncogenic h-ras transformed RIE cells were analyzed for the ability to bind Mob-5-AP versus AP alone. The same experiment was carried out with hMob-5-AP and AP alone. The cell surface bound AP activity was measured to reveal a species specific Mob-5 binding activity present only on the cell surface of the h-ras transformed RIE cells. The result is representative of at least 3 independent experiments.
As in Rat-1 cells, the putative Mob-5 receptor was also found to be differentially expressed between the normal and h-ras transformed RIE cells using Mob-5-AP fusion protein as a ligand (FIG. 4E, left panel). To determine whether hMob-5-AP could also differentially bind to the cell surface of h-ras transformed RIE cells, the receptor binding assay was conducted using hMob-5-AP in place of Mob-5-AP.
mob-5 expression is activated by both oncogenic h-ras and k-ras in intestinal epithelial cells Cancer arises from the epithelial cells rather than fibroblasts and K-ras mutations have been tightly linked with cancers of gastric intestinal origins (Kiaris and Spandidos, 1995). […] After the final 5 min extension at 72 ° C., the RT-PCR products were analyzed on a 1.5 % agarose gel. […]

Rat-1 cells = test: Over expression of Mob-5 in Rat-1 cells, morphological transformation; format: cell-based; conditions: retroviral over expression of Mob-5 alone in Rat-1 cells
From the text: Over expression of the full length mob-5 cDNA with retroviral vector in a variety of rodent fibroblasts including Rat-1 cells led to high level secretion of Mob-5 protein with a predicted MW of 23 KD into the culture media, which could be readily detected by western blot using polyclonal antibody directed against the recombinant Mob-5 (FIG. 4A).
Construction of mob-5 mammalian expression construct A 680-bp BspHI-Bgl II restriction fragment containing the entire coding region of mob-5 was generated by PCR using cloned mob-5 cDNA as a template. The targeting construct was subsequently inserted between the Nco I and Bam I sites of retroviral vector pMFG-S (Danos and Mulligan, 1988; Dranoff, G. et al. 1993) and sequenced to ensure the sequence accuracy.
Transfection and Retroviral Infection Recombinant plasmids were transfected into target cells by the standard calcium phosphate precipitation method. For retroviral packaging, pMFG-S-Mob-5 was cotransfected with pCMV-Neo vector at a rate of 10:1 (10 μg of pCMV-S-rMob-5: 1 μg of pCMV-Neo) into the CRIP packaging cells to produce G418 (1 mg/ml) resistant stable cell lines. Retroviral infection was carried out essentially as described previously (Zhang et al., 1998). […]

hMob-5 = biological target: T1, hMob-5 (Homo sapiens, UniProt Q13007); test: GBA bead capture ELISA for Mob-5, standard curve
T1 sequence (Q13007 1-207 isoform Q13007-2): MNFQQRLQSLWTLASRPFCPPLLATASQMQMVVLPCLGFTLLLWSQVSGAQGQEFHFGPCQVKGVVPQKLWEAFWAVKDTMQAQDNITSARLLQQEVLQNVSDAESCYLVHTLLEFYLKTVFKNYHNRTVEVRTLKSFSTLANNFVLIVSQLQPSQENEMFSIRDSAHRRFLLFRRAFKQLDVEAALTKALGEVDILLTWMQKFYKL
Procedure: This allows the use of GBA in a method for detecting Mob-5 in an ELISA. GBA is utilized to capture the antigen (i.e. Mob-5) and a biotinylated monoclonal antibody to Mob-5 is used to detect the antigen. The use of GBA allows for higher capacity and lower costs when compared to the traditional ELISA method. The method is performed by diluting a biotinylated Mab-hMob-5 (for example, the monoclonal antibody produced from hybridoma clone L-14) 1:500 in PBST (Phosphate Buffered Saline, Tween 0.05%); diluting Streptavidin-HRP (Sigma) 1:500 in PBST; mixing the diluted Mab-hMob-5 with the diluted Streptavidin-HRP in equal volume (for example, […]); letting the mixture sit for 5-10 minutes; washing the GBA beads with PBST twice; spinning and removing the upper liquid phase with an aspirator; resuspending the washed GBA beads in PBST as a 50% suspension; mixing […] of a sample with 100 ml of the diluted Mab-hMob-5 and Streptavidin-HRP mixture in a tube; adding […] of resuspended GBA beads to the tube; allowing the tube to rotate on a roller for 1-2 hours; spinning down the GBA beads for 2 minutes; aspirating the supernatant; washing the beads with 1 ml of PBST twice; washing the beads with dH20 twice; removing the supernatant; adding […] of horseradish peroxidase (HRP) substrate with H2O2 to resuspend the beads; allowing the color to develop in the dark for as long as needed (from hours, to days or weeks). A hMob-5-9×His medium can be utilized as a positive control. One skilled in the art would know that variations of this protocol are possible. For example, the GBA beads may be added to the sample prior to the addition of the biotinylated Mab/streptavidin-HRP mixture, alkaline phosphatase labeled streptavidin can be used, wash times may vary, spin times may vary and development times may vary. By utilizing this method, representative results for a standard curve were obtained.

B1: hMob-5-AP: human Mob-5 fused at the C-terminus with alkaline phosphatase, 90 KD (SEQ ID NO: 10) (protein)
chain: MNFQQRLQSLWTLASRPFCPPLLATASQMQMVVLPCLGFTLLLWSQVSGAQGQEFHFGPCQVKGVVPQKLWEAFWAVKDTMQAQDNITSARLLQQEVLQNVSDAESCYLVHTLLEFYLKTVFKNYHNRTVEVRTLKSFSTLANNFVLIVSQLQPSQENEMFSIRDSAHRRFLLFRRAFKQLDVEAALTKALGEVDILLTWMQKFYKLGSSGIIPVEEENPDFWNREAAEALGAAKKLQPAQTAAKNLIIFLGDGMGVSTVTAARILKGQKKDKLGPEIPLAMDRFPYVALSKTYNVDKHVPDSGATATAYLCGVKGNFQTIGLSAAARFNQCNTTRGNEVISVMNRAKKAGKSVGVVTTTRVQHASPAGTYAHTVNRNWYSDADVPASARQEGCQDIATQLISNMDIDVILGGGRKYMFPMGTPDPEYPDDYSQGGTRLDGKNLVQEWLAKRQGARYVWNRTELMQASLDPSVTHLMGLFEPGDMKYEIHRDSTLDPSLMEMTEAALRLLSRNPRGFFLFVEGGRIDHGHHESRAYRALTETIMFDDAIERAGQLTSEEDTLSLVTADHSHVFSFGGYPLRGSSIFGLAPGKARDRKAYTVLLYGNGPGYVLKDGARPDVTESESGSPEYRQQSAVPLDEETHAGEDVAVFARGPQAHLVHGVQEQTFIAHVMAFAACLEPYTACDLAPPAGTTDAAHPG
cell surface binding (bound AP activity) versus AP alone [1]: did not exhibit any preferential cell surface binding

B2: Mob-5: rat secreted protein of 183 amino acids, 23 KD, encoded by oncogenic ras target gene mob-5 (protein)
chain: PELQGQEFRFGPCQVTGVVLPELWEAFWTVKNTVKTQDELTSVRLLKPQVLQNVSDAESCYLAHSLLKFYLNTVFKNYHSKIVKFKVLKSFSTLANNFLVIMSKLQPSKDNAMLPISDSARRRFLLYHRTFKQLDIEVALAKAFGEVDILLAWMQNFYQL
morphological transformation on over expression (Rat-1 cells): did not lead to any obvious morphological transformation

B3: hMob-5: human homolog of Mob-5, secreted protein over expressed in colon cancer (protein)
chain: MNFQQRLQSLWTLASRPFCPPLLATASQMQMVVLPCLGFTLLLWSQVSGAQGQEFHFGPCQVKGVVPQKLWEAFWAVKDTMQAQDNITSARLLQQEVLQNVSDAESCYLVHTLLEFYLKTVFKNYHNRTVEVRTLKSFSTLANNFVLIVSQLQPSQENEMFSIRDSAHRRFLLFRRAFKQLDVEAALTKALGEVDILLTWMQKFYKL
OD405 (hMob-5; hMob-5 2 ng/ml): 0.216
OD405 (hMob-5; hMob-5 10 ng/ml): 0.941
OD405 (hMob-5; hMob-5 20 ng/ml): 1.881
